Among the data in PMC3965211 are fraction of the provided hKif15 in the complex values, retold here.

This assay has as its target Full-length human His6-Kif15 (human) (UniProt Q9NS87). The experiment in a line: glycerol gradient ultracentrifugation; 2.5 µM hTpx2 (dimer) + 80 nM hKif15 (tetramer), 5-40% glycerol gradient in 35 mM sodium phosphate buffer.

Sequence of Full-length human His6-Kif15 (human) (Q9NS87 whole entry): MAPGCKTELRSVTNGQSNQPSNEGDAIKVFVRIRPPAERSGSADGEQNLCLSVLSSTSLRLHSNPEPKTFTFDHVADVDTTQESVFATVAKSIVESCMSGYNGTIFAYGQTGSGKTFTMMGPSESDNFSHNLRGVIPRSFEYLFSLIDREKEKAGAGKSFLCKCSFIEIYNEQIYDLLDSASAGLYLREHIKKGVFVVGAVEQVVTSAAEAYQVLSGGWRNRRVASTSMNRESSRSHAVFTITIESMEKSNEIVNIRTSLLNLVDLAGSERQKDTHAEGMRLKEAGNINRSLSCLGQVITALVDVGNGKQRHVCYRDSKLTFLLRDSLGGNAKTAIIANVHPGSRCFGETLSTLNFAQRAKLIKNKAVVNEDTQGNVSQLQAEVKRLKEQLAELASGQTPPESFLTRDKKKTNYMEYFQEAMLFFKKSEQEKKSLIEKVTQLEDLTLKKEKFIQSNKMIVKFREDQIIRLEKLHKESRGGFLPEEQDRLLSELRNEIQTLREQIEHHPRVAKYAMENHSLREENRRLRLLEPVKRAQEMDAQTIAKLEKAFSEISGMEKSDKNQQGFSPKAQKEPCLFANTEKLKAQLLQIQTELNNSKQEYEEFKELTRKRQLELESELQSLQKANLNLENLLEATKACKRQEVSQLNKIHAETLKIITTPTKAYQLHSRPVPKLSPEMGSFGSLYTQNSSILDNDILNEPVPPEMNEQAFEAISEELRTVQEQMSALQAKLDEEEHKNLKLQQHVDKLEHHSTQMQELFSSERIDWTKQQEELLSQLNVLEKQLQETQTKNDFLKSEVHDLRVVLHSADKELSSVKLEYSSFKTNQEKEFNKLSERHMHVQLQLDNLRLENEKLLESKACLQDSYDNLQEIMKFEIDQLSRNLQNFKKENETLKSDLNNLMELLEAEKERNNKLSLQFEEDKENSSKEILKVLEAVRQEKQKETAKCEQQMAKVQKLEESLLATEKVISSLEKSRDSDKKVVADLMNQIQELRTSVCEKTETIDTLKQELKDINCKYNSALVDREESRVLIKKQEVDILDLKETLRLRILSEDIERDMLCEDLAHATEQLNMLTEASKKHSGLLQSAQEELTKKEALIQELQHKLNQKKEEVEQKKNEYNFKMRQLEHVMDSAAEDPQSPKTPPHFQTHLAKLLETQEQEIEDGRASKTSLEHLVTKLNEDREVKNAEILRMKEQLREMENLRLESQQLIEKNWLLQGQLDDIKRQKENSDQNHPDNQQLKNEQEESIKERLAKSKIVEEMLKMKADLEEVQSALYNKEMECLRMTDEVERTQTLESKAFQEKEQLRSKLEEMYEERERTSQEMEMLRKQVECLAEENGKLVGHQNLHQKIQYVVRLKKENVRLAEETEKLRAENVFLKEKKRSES

Regarding “human His6-Tpx2 (from UniProt Q9ULW0 1-747) (natural protein)”, the fraction of the provided hKif15 in the complex came out at 0.33.
